Results reported in publication PMC4137108.

What was measured:
[1] = target: Apaf-1 (human (endogenous in HeLa)) (UniProt O14727)
[2] = target: Apaf-1 (human (endogenous in HeLa)) (UniProt O14727); remark: listed apart in the source

Sequence of UniProt O14727 (O14727 whole entry): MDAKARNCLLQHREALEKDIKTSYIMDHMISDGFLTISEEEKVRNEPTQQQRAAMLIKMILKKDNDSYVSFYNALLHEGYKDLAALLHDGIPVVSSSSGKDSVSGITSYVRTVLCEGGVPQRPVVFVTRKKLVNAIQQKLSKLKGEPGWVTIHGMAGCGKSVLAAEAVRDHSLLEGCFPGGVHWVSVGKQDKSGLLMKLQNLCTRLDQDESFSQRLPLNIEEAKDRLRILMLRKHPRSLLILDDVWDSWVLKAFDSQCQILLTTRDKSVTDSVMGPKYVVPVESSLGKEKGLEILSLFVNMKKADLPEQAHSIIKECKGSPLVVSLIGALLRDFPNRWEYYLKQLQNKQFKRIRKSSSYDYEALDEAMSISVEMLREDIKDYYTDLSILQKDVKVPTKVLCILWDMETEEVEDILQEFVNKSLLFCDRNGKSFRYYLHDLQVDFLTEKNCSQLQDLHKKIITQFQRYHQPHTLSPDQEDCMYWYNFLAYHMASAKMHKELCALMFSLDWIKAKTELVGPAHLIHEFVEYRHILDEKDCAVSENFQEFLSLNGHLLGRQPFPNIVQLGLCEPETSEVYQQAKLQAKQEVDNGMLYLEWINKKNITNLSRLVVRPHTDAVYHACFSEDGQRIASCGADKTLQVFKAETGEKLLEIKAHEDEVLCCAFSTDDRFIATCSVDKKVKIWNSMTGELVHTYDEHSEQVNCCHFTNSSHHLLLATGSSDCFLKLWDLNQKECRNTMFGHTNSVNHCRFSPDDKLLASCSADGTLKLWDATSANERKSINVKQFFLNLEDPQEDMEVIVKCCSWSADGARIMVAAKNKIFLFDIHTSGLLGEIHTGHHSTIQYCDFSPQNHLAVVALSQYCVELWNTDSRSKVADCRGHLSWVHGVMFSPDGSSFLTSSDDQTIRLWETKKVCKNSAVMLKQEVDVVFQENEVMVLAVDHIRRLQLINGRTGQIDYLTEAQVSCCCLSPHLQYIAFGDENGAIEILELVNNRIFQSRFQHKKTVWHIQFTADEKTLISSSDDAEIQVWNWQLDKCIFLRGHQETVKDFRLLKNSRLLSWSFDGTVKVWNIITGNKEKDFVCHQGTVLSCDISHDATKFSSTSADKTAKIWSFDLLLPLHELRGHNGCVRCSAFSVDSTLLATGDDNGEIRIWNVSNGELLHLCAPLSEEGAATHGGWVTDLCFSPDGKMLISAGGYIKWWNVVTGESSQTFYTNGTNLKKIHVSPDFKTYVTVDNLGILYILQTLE

Substance: Cytochrome c from equine heart (from UniProt P00004 1-105) (natural protein)
- relative caspase 3 activation in a cell-free system after precipitation of Cyt c with acetone (water-organic solvent interface) [1]: 51%
- relative caspase 3 activation in a cell-free system after precipitation of Cyt c with acetonitrile (water-organic solvent interface) [1]: 64%
- cell-free caspase 3 activation in HeLa cytosol (DEVD-pNA), relative to non-modified Cyt c (the reference itself) [2]: 100%
- cell-free caspase 9 activation in HeLa cytosol (LEHD-pNA), relative to non-modified Cyt c (the reference itself) [2]: 100%
